First the molecules themselves.
B1: β-glucosidase B (BglB) (Paenibacillus polymyxa; L339M) (protein)
chain: MSENTFIFPATFMWGTSTSSYQIEGGTDEGGRTPSIWDTFCQIPGKVIGGDCGDVACDHFHHFKEDVQLMKQLGFLHYRFSVAWPRIMPAAGIINEEGLLFYEHLLDEIELAGLIPMLTLYHWDLPQWIEDEGGWTQRETIQHFKTYASVIMDRFGERINWWNTINEPYCASILGYGTGEHAPGHENWREAFTAAHHILMCHGIASNLHKEKGLTGKIGITLNMEHVDAASERPEDVAAAIRRDGFINRWFAEPLFNGKYPEDMVEWYGTYLNGLDFVQPGDMELIQQPGDFLGINYYTRSIIRSTNDASLLQVEQVHMEEPVTDMGWEIHPESFYKLMTRIEKDFSKGLPILITENGAAMRDELVNGQIEDTGRHGYIEEHLKACHRFIEEGGQLKGYFVWSFLDNFEWAWGYSKRFGIVHINYETQERTPKQSALWFKQMMAKNGF
B2: β-glucosidase B (BglB) (Paenibacillus polymyxa; L339H) (protein)
chain: MSENTFIFPATFMWGTSTSSYQIEGGTDEGGRTPSIWDTFCQIPGKVIGGDCGDVACDHFHHFKEDVQLMKQLGFLHYRFSVAWPRIMPAAGIINEEGLLFYEHLLDEIELAGLIPMLTLYHWDLPQWIEDEGGWTQRETIQHFKTYASVIMDRFGERINWWNTINEPYCASILGYGTGEHAPGHENWREAFTAAHHILMCHGIASNLHKEKGLTGKIGITLNMEHVDAASERPEDVAAAIRRDGFINRWFAEPLFNGKYPEDMVEWYGTYLNGLDFVQPGDMELIQQPGDFLGINYYTRSIIRSTNDASLLQVEQVHMEEPVTDMGWEIHPESFYKLHTRIEKDFSKGLPILITENGAAMRDELVNGQIEDTGRHGYIEEHLKACHRFIEEGGQLKGYFVWSFLDNFEWAWGYSKRFGIVHINYETQERTPKQSALWFKQMMAKNGF
B3: β-glucosidase B (BglB) (Paenibacillus polymyxa; L339S) (protein)
chain: MSENTFIFPATFMWGTSTSSYQIEGGTDEGGRTPSIWDTFCQIPGKVIGGDCGDVACDHFHHFKEDVQLMKQLGFLHYRFSVAWPRIMPAAGIINEEGLLFYEHLLDEIELAGLIPMLTLYHWDLPQWIEDEGGWTQRETIQHFKTYASVIMDRFGERINWWNTINEPYCASILGYGTGEHAPGHENWREAFTAAHHILMCHGIASNLHKEKGLTGKIGITLNMEHVDAASERPEDVAAAIRRDGFINRWFAEPLFNGKYPEDMVEWYGTYLNGLDFVQPGDMELIQQPGDFLGINYYTRSIIRSTNDASLLQVEQVHMEEPVTDMGWEIHPESFYKLSTRIEKDFSKGLPILITENGAAMRDELVNGQIEDTGRHGYIEEHLKACHRFIEEGGQLKGYFVWSFLDNFEWAWGYSKRFGIVHINYETQERTPKQSALWFKQMMAKNGF
B4: β-glucosidase B (BglB) (Paenibacillus polymyxa; D38E) (protein)
chain: MSENTFIFPATFMWGTSTSSYQIEGGTDEGGRTPSIWETFCQIPGKVIGGDCGDVACDHFHHFKEDVQLMKQLGFLHYRFSVAWPRIMPAAGIINEEGLLFYEHLLDEIELAGLIPMLTLYHWDLPQWIEDEGGWTQRETIQHFKTYASVIMDRFGERINWWNTINEPYCASILGYGTGEHAPGHENWREAFTAAHHILMCHGIASNLHKEKGLTGKIGITLNMEHVDAASERPEDVAAAIRRDGFINRWFAEPLFNGKYPEDMVEWYGTYLNGLDFVQPGDMELIQQPGDFLGINYYTRSIIRSTNDASLLQVEQVHMEEPVTDMGWEIHPESFYKLLTRIEKDFSKGLPILITENGAAMRDELVNGQIEDTGRHGYIEEHLKACHRFIEEGGQLKGYFVWSFLDNFEWAWGYSKRFGIVHINYETQERTPKQSALWFKQMMAKNGF
B5: β-glucosidase B (BglB) (Paenibacillus polymyxa; D38W) (protein)
chain: MSENTFIFPATFMWGTSTSSYQIEGGTDEGGRTPSIWWTFCQIPGKVIGGDCGDVACDHFHHFKEDVQLMKQLGFLHYRFSVAWPRIMPAAGIINEEGLLFYEHLLDEIELAGLIPMLTLYHWDLPQWIEDEGGWTQRETIQHFKTYASVIMDRFGERINWWNTINEPYCASILGYGTGEHAPGHENWREAFTAAHHILMCHGIASNLHKEKGLTGKIGITLNMEHVDAASERPEDVAAAIRRDGFINRWFAEPLFNGKYPEDMVEWYGTYLNGLDFVQPGDMELIQQPGDFLGINYYTRSIIRSTNDASLLQVEQVHMEEPVTDMGWEIHPESFYKLLTRIEKDFSKGLPILITENGAAMRDELVNGQIEDTGRHGYIEEHLKACHRFIEEGGQLKGYFVWSFLDNFEWAWGYSKRFGIVHINYETQERTPKQSALWFKQMMAKNGF
B6: β-glucosidase B (BglB) (Paenibacillus polymyxa; L339A) (protein)
chain: MSENTFIFPATFMWGTSTSSYQIEGGTDEGGRTPSIWDTFCQIPGKVIGGDCGDVACDHFHHFKEDVQLMKQLGFLHYRFSVAWPRIMPAAGIINEEGLLFYEHLLDEIELAGLIPMLTLYHWDLPQWIEDEGGWTQRETIQHFKTYASVIMDRFGERINWWNTINEPYCASILGYGTGEHAPGHENWREAFTAAHHILMCHGIASNLHKEKGLTGKIGITLNMEHVDAASERPEDVAAAIRRDGFINRWFAEPLFNGKYPEDMVEWYGTYLNGLDFVQPGDMELIQQPGDFLGINYYTRSIIRSTNDASLLQVEQVHMEEPVTDMGWEIHPESFYKLATRIEKDFSKGLPILITENGAAMRDELVNGQIEDTGRHGYIEEHLKACHRFIEEGGQLKGYFVWSFLDNFEWAWGYSKRFGIVHINYETQERTPKQSALWFKQMMAKNGF

What is called Km is the concentration of substrate that gives half-maximal velocity. For orientation: kcat means the number of substrate molecules converted per active site and unit of time at saturation.

Substrate in this data set: O=[N+]([O-])c1ccc(O[C@@H]2O[C@H](CO)[C@@H](O)[C@H](O)[C@H]2O)cc1
The data set can be described thus: purified protein. It counts as biochemical, Paenibacillus polymyxa. As to conditions: 0.11-100 mM substrate, readings every minute for 15 min; triplicate.
In the case of B1, the Km is on record as 4.72 ± 0.82 mM and the kcat amounted to 395 ± 18.1 min⁻¹.

With B2, the Km was 3.55 ± 0.26 mM and the kcat turned out to be 675 ± 13.3 min⁻¹.

Take B3: the Km was found to be 4.44 ± 0.62 mM and the kcat worked out at 572 ± 20.9 min⁻¹.

Regarding B4, the Michaelis-Menten constant (Km) is 2.72 ± 0.31 mM and the kcat worked out at 16.3 ± 0.40 min⁻¹.

For the protein B5, the Km is 2.80 ± 0.55 mM and the kcat worked out at 13.0 ± 0.60 min⁻¹.

On to B6, for which the Km is on record as 24.3 ± 1.65 mM and the turnover number (kcat) turned out to be 568 ± 14.9 min⁻¹.

For the origin of these results see article doi:10.1101/2025.05.22.655130v1.
